Measurements taken from patent publication US9018138.

Legend:
[1] = target: coxsackievirus-adenovirus receptor (CAR) on 293, PC-3 and PC3-CAR cells (UniProt P78310); test: cell-based or functional assay
[2] = target: integrins; test: cell-based or functional assay

| Substance | infection of 293 cells after anti-CAR siRNA knock-down (GFP) [1] [%] | infection of PC3-CAR against PC-3 cells (GFP fluorescence intensity, MOI 100) [1] [fold] | infection relative to wild type fiber virus [2] [%] |
| --- | --- | --- | --- |
| wild type Adenovirus Serotype 5 (Ad5) Fiber, displayed on the capsid of virus AdTrack-WTFib (from UniProt P11818 1-581) | > 50 | 26 |  |
| CAR ablated and RGD4C re-targeted Fiber (ΔTAYT-RGD), displayed on the capsid of virus AdTrack-RGD4C-2 (from UniProt P11818 1-542; P11818 543-581) |  |  | 5 |
